± gives the standard deviation of the averaged measurements.
Test: total protein half-life in vivo (active degradation + dilution); higher = more stable protein
[1] = E. coli NCM3722 delta-clpP delta-lon delta-hslV, growth: N-lim chemostat, doubling time 6 h
[2] = wild type E. coli NCM3722, growth: C-lim chemostat, doubling time 3 h
[3] = wild type E. coli NCM3722, growth: C-lim chemostat, doubling time 12 h
[4] = E. coli NCM3722 delta-clpP, growth: N-lim chemostat, doubling time 6 h
[5] = E. coli NCM3722 delta-hslV, growth: N-lim chemostat, doubling time 6 h
[6] = E. coli NCM3722 delta-lon, growth: N-lim chemostat, doubling time 6 h
[7] = E. coli NCM3722 delta-smpB, growth: N-lim chemostat, doubling time 6 h
[8] = wild type E. coli NCM3722, growth: C-lim chemostat, doubling time 6 h
[9] = wild type E. coli NCM3722, growth: N-lim chemostat, doubling time 6 h
[10] = wild type E. coli NCM3722, growth: N-lim chemostat, doubling time 12 h
[11] = wild type E. coli NCM3722, growth: P-lim chemostat, doubling time 6 h
[12] = wild type E. coli NCM3722, growth: P-lim chemostat, doubling time 12 h

Sequence	total protein half-life in vivo [1]	total protein half-life in vivo [2]	total protein half-life in vivo [3]	total protein half-life in vivo [4]	total protein half-life in vivo [5]	total protein half-life in vivo [6]	total protein half-life in vivo [7]	total protein half-life in vivo [8]	total protein half-life in vivo [9]	total protein half-life in vivo [10]	total protein half-life in vivo [11]	total protein half-life in vivo [12]
MKTGMFTCGHQRLPIEHAFRDASELGYDGIEIWGGRPHAFAPDLKAGGIKQIKALAQTYQMPIIGYTPETNGYPYNMMLGDEHMRRESLDMIKLAMDMAKEMNAGYTLISAAHAGYLTPPNVIWGRLAENLSELCEYAENIGMDLILEPLTPYESNVVCNANDVLHALALVPSPRLFSMVDICAPYVQAEPVMSYFDKLGDKLRHLHIVDSDGASDTHYIPGEGKMPLRELMRDIIERGYEGYCTVELVTMYMNEPRLYARQALERFRALLPEDER	7.09 h	> 4 h	6.86 h									
MADVHDKATRSKNMRAIATRDTAIEKRLASLLTGQGLAFRVQDASLPGRPDFVVDEYRCVIFTHGCFWHHHHCYLFKVPATRTEFWLEKIGKNVERDRRDISRLQELGWRVLIVWECALRGREKLTDEALTERLEEWICGEGASAQIDTQGIHLLA	5.56 h		8.92 h	4.58 ± 0.72 h	3.63 ± 0.22 h	3.67 h	4.35 ± 1.4 h	4.16 h	3.98 ± 0.43 h	5.45 ± 0.16 h	3.9 ± 0.41 h	9.27 ± 3.3 h
MKYVFIEKHQAEFSIKAMCRVLRVARSGWYTWCQRRTRISTRQQFRQHCDSVVLAAFTRSKQRYGAPRLTDELRAQGYPFNVKTVAASLRRQGLRAKASRKFSPVSYRAHGLPVSENLLEQDFYASGPNQKWAGDITYLRTDEGWLYLAVVIDLWSRAVIGWSMSPRMTAQLACDALQMALWRRKRPRNVIVHTDRGGQYCSADYQAQLKRHNLRGSMSAKGCCYDNACVESFFHSLKVECIHGEHFISREIMRATVFNYIECDYNRWRRHSWCGGLSPEQFENKNLA [P0CF81]	5.16 ± 0.69 h											
MKFTQRLSLRVRLTLIFLILASVTWLLSSFVAWKQTTDNVDELFDTQLMLFAKRLSTLDLNEINAADRMAQTPNRLKHGHVDDDALTFAIFTHDGRMVLNDGDNGEDIPYSYQREGFADGQLVGEDDPWRFVWMTSPDGKYRIVVGQEWEYREDMALAIVAGQLIPWLVALPIMLIIMMVLLGRELAPLNKLALALRMRDPDSEKPLNATGVPSEVRPLVESLNQLFARTHAMMVRERRFTSDAAHELRSPLTALKVQTEVAQLSDDDPQARKKALLQLHSGIDRATRLVDQLLTLSRLDSLDNLQDVAEIPLEDLLQSSVMDIYHTAQQAKIDVRLTLNAHSIKRTGQPLLLSLLVRNLLDNAVRYSPQGSVVDVTLNADNFIVRDNGPGVTPEALARIGERFYRPPGQTATGSGLGLSIVQRIAKLHGMNVEFGNAEQGGFEAKVSW	5.9 ± 0.21 h	3.19 h	14.6 ± 1.6 h	6.26 ± 0.56 h	6.38 ± 0.11 h		5.66 ± 0.13 h		5.98 ± 0.52 h	14.08 ± 0.14 h	6.13 ± 0.39 h	12.4 ± 3.3 h
MSWQQFKHAWLIKFWAPIPAVIAAGILSTYYFGITGTFWAVTGEFTRWGGQLLQLFGVHAEEWGYFKIIHLEGSPLTRIDGMMILGMFGGCFAAALWANNVKLRMPRSRIRIMQAIIGGIIAGFGARLAMGCNLAAFFTGIPQFSLHAWFFAIATAIGSWFGARFTLLPIFRIPVKMQKVSAASPLTQKPDQARRRFRLGMLVFFGMLGWALLTAMNQPKLGLAMLFGVGFGLLIERAQICFTSAFRDMWITGRTHMAKAIIIGMAVSAIGIFSYVQLGVEPKIMWAGPNAVIGGLLFGFGIVLAGGCETGWMYRAVEGQVHYWWVGLGNVIGSTILAYYWDDFAPALATDWDKINLLKTFGPMGGLLVTYLLLFAALMLIIGWEKRFFRRAAPQTAKEIA			6.8 ± 1.4 h	1.86 h	2.16 h		3.67 h	4.44 ± 0.089 h	3.69 h		2.95 h	
MLAFIRFLFAGLLLVISHAFAATVQDEHGTFTLEKTPQRIVVLELSFADALAAVDVIPIGIADDNDAKRILPEVRAHLKPWQSVGTRAQPSLEAIAALKPDLIIADSSRHAGVYIALQQIAPVLLLKSRNETYAENLQSAAIIGEMVGKKREMQARLEQHKERMAQWASQLPKGTRVAFGTSREQQFNLHTQETWTGSVLASLGLNVPAAMAGASMPSIGLEQLLAVNPAWLLVAHYREESIVKRWQQDPLWQMLTAAQKQQVASVDSNTWARMRGIFAAERIAADTVKIFHHQPLTVVK			7.06 h					5.67 h				
MLLNMMCGRQLSAISLCLAVTFAPLFNAQADEPEVIPGDSPVAVSEQGEALPQAQATAIMAGIQPLPEGAAEKARTQIESQLPAGYKPVYLNQLQLLYAARDMQPMWENRDAVKAFQQQLAEVAIAGFQPQFNKWVELLTDPGVNGMARDVVLSDAMMGYLHFIANIPVKGTRWLYSSKPYALATPPLSVINQWQLALDKGQLPTFVAGLAPQHPQYAAMHESLLALLCDTKPWPQLTGKATLRPGQWSNDVPALREILQRTGMLDGGPKITLPGDDTPTDAVVSPSAVTVETAETKPMDKQTTSRSKPAPAVRAAYDNELVEAVKRFQAWQGLGADGAIGPATRDWLNVTPAQRAGVLALNIQRLRLLPTELSTGIMVNIPAYSLVYYQNGNQVLDSRVIVGRPDRKTPMMSSALNNVVVNPPWNVPPTLARKDILPKVRNDPGYLESHGYTVMRGWNSREAIDPWQVDWSTITASNLPFRFQQAPGPRNSLGRYKFNMPSSEAIYLHDTPNHNLFKRDTRALSSGCVRVNKASDLANMLLQDAGWNDKRISDALKQGDTRYVNIRQSIPVNLYYLTAFVGADGRTQYRTDIYNYDLPARSSSQIVSKAEQLIR	5.42 ± 0.21 h	3.03 ± 0.053 h	12.2 ± 1.1 h	5.32 ± 1 h	5.764 ± 0.032 h	5.39 ± 0.3 h	4.989 ± 0.017 h	6.5 ± 0.17 h	5.57 ± 0.65 h	8.84 ± 0.75 h	4.75 ± 0.52 h	9.2 ± 1.2 h
MKTSRLPIAIQQAVMRRLREKLAQANLKLGRNYPEPKLSYTQRGTSAGTAWLESYEIRLNPVLLLENSEAFIEEVVPHELAHLLVWKHFGRVAPHGKEWKWMMENVLGVPARRTHQFELQSVRRNTFPYRCKCQEHQLTVRRHNRVVRGEAVYRCVHCGEQLVAK	4.81 ± 0.12 h		5.52 h									
MKILVYGINYSPELTGIGKYTGEMVEWLAAQGHEVRVITAPPYYPQWQVGENYSAWRYKREEGAATVWRCPLYVPKQPSTLKRLLHLGSFAVSSFFPLMAQRRWKPDRIIGVVPTLFCAPGMRLLAKLSGARTVLHIQDYEVDAMLGLGLAGKGKGGKVAQLATAFERSGLHNVDNVSTISRSMMNKAIEKGVAAENVIFFPNWSEIARFQHVADADVDALRNQLDLPDNKKIILYSGNIGEKQGLENVIEAADRLRDEPLIFAIVGQGGGKARLEKMAQQRGLRNMQFFPLQSYDALPALLKMGDCHLVVQKRGAADAVLPSKLTNILAVGGNAVITAEAYTELGQLCETFPGIAVCVEPESVEALVAGIRQALLLPKHNTVAREYAERTLDKENVLRQFINDIRG	4.84 h						5.37 h					
